Laboratory results from patent publication US20090092614A1.

What was measured:
[1] = target: human IGF-1R(1-903)-Fc (human) (UniProt P08069); assay: competition ELISA: biotinylated hIGF-1R-Fc on streptavidin plate, antibody titrated in 320 nM human IGF-1 His (blocked ligand), anti-His-HRP detection
[2] = target: human IGF-1R(1-903)-Fc (human) (UniProt P08069); assay: blocking ELISA, competitor 640 nM IGF-2
[3] = target: human IGF-1R(1-903)-Fc (human) (UniProt P08069); assay: blocking ELISA, competitor 320 nM IGF-1

Chain of human IGF-1R(1-903)-Fc (human) (P08069 31-933): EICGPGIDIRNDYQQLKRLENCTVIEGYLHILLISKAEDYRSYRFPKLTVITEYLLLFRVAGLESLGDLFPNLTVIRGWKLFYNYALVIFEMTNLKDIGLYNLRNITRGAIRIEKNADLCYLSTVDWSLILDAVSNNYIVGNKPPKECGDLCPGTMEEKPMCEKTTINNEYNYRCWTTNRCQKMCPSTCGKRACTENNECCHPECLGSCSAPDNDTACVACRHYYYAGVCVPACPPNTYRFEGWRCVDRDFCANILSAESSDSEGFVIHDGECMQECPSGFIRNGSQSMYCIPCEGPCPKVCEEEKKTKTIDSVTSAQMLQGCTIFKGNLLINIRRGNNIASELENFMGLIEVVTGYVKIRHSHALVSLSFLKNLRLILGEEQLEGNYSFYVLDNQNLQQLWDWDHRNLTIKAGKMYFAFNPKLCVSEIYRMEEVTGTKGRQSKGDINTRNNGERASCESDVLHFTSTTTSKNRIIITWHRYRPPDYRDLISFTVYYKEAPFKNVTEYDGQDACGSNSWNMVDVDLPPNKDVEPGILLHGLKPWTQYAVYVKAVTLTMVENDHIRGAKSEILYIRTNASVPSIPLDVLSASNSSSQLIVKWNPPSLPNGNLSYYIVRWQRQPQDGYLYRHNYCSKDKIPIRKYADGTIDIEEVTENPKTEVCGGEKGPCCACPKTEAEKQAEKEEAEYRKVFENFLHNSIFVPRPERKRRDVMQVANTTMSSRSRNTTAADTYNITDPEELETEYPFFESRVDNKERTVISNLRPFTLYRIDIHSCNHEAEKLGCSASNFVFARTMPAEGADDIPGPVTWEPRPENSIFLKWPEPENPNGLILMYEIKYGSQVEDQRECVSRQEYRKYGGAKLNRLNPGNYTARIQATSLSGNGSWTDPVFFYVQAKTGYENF

IC50 (read off the curve) [1]: 4 nM
% IGF-2 inhibition upon antibody saturation [2]: 60%
% IGF-1 inhibition upon antibody saturation [3]: 23%
Substance: αIR3 (antibody)
